This assay concerns the target T1, Human secretagogin (SEQ ID NO: 1, containing an amino terminal … FLIS tag) (human, UniProt O76038 1-276).
T1 construct: It was biotinylated for the screening ELISA and unlabeled in the sandwich screens; also called Secretagogin protein; human secretagogin-biotin
T1 sequence: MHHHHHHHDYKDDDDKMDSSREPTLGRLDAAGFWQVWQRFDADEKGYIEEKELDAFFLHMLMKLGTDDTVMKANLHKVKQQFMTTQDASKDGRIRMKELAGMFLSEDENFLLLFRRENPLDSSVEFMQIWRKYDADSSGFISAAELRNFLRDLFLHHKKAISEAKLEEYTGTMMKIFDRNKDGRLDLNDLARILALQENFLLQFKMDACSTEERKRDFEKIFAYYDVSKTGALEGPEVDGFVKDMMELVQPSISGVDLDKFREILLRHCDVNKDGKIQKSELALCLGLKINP
Kind of assay: method not stated.

Data on two molecules can be found in patent US20100267060A1 (BIOSITE, published 2010).

B1: ST108Z R1ZM 02871 (antibody, V domains shown)
VH: EVQLQQSGPELVKPGTSVKMSCKASGYSFTDYNMHWVKQSHGKSLEWIGYVDPNIGGTSYNPKFKGKATLTVNKSSSTAYMELRSLTSEDSAVYFCARYPNYSGRRYLFAMDYWGQGTSVTVSS
VL: EIVLTQSPAIMSASPGEKVTLTCSASSSISSSYFYWYRQKPGSSPQLWIYGTSNLASGVPARFSGSGSGTSYSLTISSMEAEDAASYFCHQWSSYPLTFGAGTKLELK
notes: Mouse monoclonal antibody from phage-display library ST108ZR1, expressed in E. coli from a plasmid vector
Molecule B1 yielded a Ka not below 1e+10 M⁻¹.

B2: ST102Z X1ZM 01611 (antibody, V domains shown)
VH: QVQLQQSRPELVRPGASVKISCKAPGYIFTSHWMQWVRQRPGQGLEWIGEIFPGSGSTFYNEKFKDKATLTVDTSSSTAYMQLSSLTSEDSAVYFCARTDYYSSAMDYWGQGTSVTVSS
VL: ETTVTQSPSSLSMAIGEKVTIRCITHTDIDDDMNWYQQKPGEPPKLLISEGNTLRPGVPSRFSSSGFGTDFFFTIENMLSEDVADYYCLQSDTLPLTFGAGTKLELK
notes: Mouse monoclonal antibody from phage-display library ST102ZX1, expressed in E. coli from a plasmid vector
For the molecule B2, the Ka is not below 1e+10 M⁻¹.
